Assay results as given in US20190345227A1.

Biological target: SpyCatcher-elastin-CarHC-elastin-SpyCatcher
Test: cell-based or functional assay

- free mCherry detected in the supernatant of the AAA+BCB hydrogel, under both dark and bright conditions: 50%
Substance: mCherry
